Experiments:
Assay in all cases: cell-based or functional assay
[1] = biological target: T1, AVR3a homolog from Phytophthora palmivora designated as L3B (Phytophthora palmivora)
T1 sequence: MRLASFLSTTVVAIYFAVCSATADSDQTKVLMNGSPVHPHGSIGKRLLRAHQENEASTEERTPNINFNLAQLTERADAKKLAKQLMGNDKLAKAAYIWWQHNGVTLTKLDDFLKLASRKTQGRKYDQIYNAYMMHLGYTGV

[2] = biological target: T2, AVR3a homolog from Phytophthora palmivora designated as L6B (Phytophthora palmivora)
T2 sequence: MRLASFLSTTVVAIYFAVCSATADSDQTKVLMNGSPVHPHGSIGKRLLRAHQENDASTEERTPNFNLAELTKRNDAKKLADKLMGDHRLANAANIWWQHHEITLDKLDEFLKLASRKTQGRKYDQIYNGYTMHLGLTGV

[3] = biological target: T3, AVR3a homolog from Phytophthora palmivora designated as L7B (Phytophthora palmivora)
T3 sequence: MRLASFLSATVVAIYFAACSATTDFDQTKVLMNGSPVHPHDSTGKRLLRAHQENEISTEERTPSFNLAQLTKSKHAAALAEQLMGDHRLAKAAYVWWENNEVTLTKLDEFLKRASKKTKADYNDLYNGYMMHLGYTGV

[4] = biological target: AVR3a^KI effector protein of Phytophthora infestans (Phytophthora infestans) (UniProt Q572D3)

B1: modified R3a protein corresponding to clone GS4 (protein)
chain: MEIGLAVGGAFLSSALNVLFDRLAPHGDLLNMFQKHKDHVKLLKKLEDILLGLQIVLSDAENKQASNRHVSQWFNKLQNAVDGAENLIEQVNYEALRLKVEGQHQNLAETSNQQVSDLNLCFSDDFFLNIKDKLEETIETLEVLEKQIGRLGLKEHFGSTKQETRTPSTSLVDDSDIFGRQNDIEDLIDRLLSEDASGKKRTVVPIVGMGGLGKTTLAKAVYNDERVQIHFGLKAWFCVSEAFDAFRITKGLLQEIGSFDLKADDNLNQLQVKLKERLKGKKFLIVLDDVWNDNYNKWDELRNVFVQGDIGSKIIVTTRKESVALMMGNEQISMDNLSTESSWSLFKTHAFENMGPMGHPELEEVGKQIAAKCKGLPLALKTLAGMLRSKSEVEEWKRILRSEIWELPHNDILPALMLSYNDLPAHLKRCFSFCAIFPKDYPFRKEQVIHLWIANGLVPQEDVIIEDSGNQYFLELRSRSLFERVPNPSQGNTENLFLMHDLVNDLAQIASSKLCIRLEESQGSHMLEQSQHLSYSMGYGGEFEKLTPLYKLEQLRTLLPTCIDLPDCCHHLSKRVLHNILPRLTSLRALSLSCYEIVELPNDLFIKLKLLRFLDISRTEIKRLPDSICALYNLETLLLSSCYDLEELPLQMEKLINLRHLDISNTRPLKMPLHLSKLKSLQVLVGAKFLIGGLRMEDLGEVHNLYGSLSVVELQNVVDRREAVKAKMREKNHVDRLYLEWSGSSSADNSQTERDILDELRPHKNIKVVKITGYRGTNFPNWLADPLFLKLVKLSLRNCKNCYSLPALGQLPFLKFLSIREMHGITEVTEEFYGSWSSKKPFNCLEKLEFKDMPEWKQWDLLGSGEFPILEKLLIENCPELSLETVPIQLSSLKSFDVIGSPLVINFPLSILPTTLKRIKISDCQKLKLEQPTGEISMFLEELTLIKCDCIDDISPELLPRARKLWVQDWHNLTRFLIPTATETLDIWNCENVEILSVACGGTQMTSLTIAYCKKLKWLPERMQELLPSLKELHLSNCPEIESFPEGGLPFNLQQLAIRYCKKLVNGRKEWHLQRRLCLTALIIYHDGSDEEIVGGENWELPSSIQRLTIVNLKTLSSQHLKNLTSLQYLFIRGNLPQIQPMLEQGQCSHLTSLQSLQISSLQSLPESALPSSLSHLEISHCPNLQSLPESALPSSLSQLTINNCPNLQSLSESTLPSSLSQLEISFCPNLQYLPLKGMPSSLSELSIYKCPLLKPQLEFDKGEYWPNIAQFPTIKIDRECM
Q: What does the source list for B1?
A: Cell death/HR intensity, pVnt1-R3aGS4, 1dpi [1]: 0; Cell death/HR intensity, pVnt1-R3aGS4, 2dpi [1]: 2; Cell death/HR intensity, pVnt1-R3aGS4, 3dpi [1]: 3; Cell death/HR intensity, pVnt1-R3aGS4, 1dpi [2]: 0; Cell death/HR intensity, pVnt1-R3aGS4, 2dpi [2]: 0; Cell death/HR intensity, pVnt1-R3aGS4, 3dpi [2]: 0; Cell death/HR intensity, pVnt1-R3aGS4, 1dpi [3]: 2; Cell death/HR intensity, pVnt1-R3aGS4, 2dpi [3]: 2; Cell death/HR intensity, pVnt1-R3aGS4, 3dpi [3]: 2; Cell death/HR intensity, pVnt1-R3aGS4, 1dpi [4]: 2; Cell death/HR intensity, pVnt1-R3aGS4, 2dpi [4]: 4; Cell death/HR intensity, pVnt1-R3aGS4, 3dpi [4]: 4

— patent US20130097734A1
